Data set [1] has as its system K4 kissing-loop RNA reporter. Put plainly: apparent KD of K4 kissing-loop reporter; higher = weaker reporter binding. Conditions: Eterna round: R107. The method, then: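 RNA-MaP round R107: designed RNA switches with theophylline, tryptophan, arginine or FMN aptamers are transcribed on-chip within common flanks. They are titrated with a labelled K4 kissing-loop RNA reporter in RNA-MaP buffer (100 mM Tris pH 7.5, 80 mM KCl, 4 mM MgCl2), without ligand or with the indicated ligand. Median apparent KD per design.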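 Also: bound reporter read as fluorescence of individual clusters on recovered sequencing chips by microscopy, with normalized cluster intensities fitted with a binding model.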

In a further data set the test system is MS2 coat protein. Put plainly: apparent KD of MS2 coat protein; designed switch direction (-1 OFF switch, 1 ON switch): -1; higher = weaker reporter binding. The gist of the method: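 An oligonucleotide input, 200 uM small-molecule ligand, or no input was present during titration of SNAP-549-labelled MS2 coat protein, which was doubled from 0.7 or 1.5 nM to 3 µM. Designed RNA switches had been transcribed on Illumina chips by stalled E. coli RNA polymerase. Apparent KD per design is the median over clusters of curves fitted to normalised cluster fluorescence.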

Setting [2] is: input ligand: theophylline 20 uM.
The mark [3] stands for this setting: input ligand: tryptophan 2.4 mM.
Setting [4] is: Eterna round: R95, input ligand: microRNA oligo, concentration not stated.
The mark [5] stands for this setting: Eterna round: R95, input ligand: FMN 200 uM.
The mark [6] stands for this setting: Eterna round: R95, input ligand: none.

For “AAAUAAAUCAGAGGAUAUUCUUCCCACGUCGAAGUACCGUGCUUGAUGGAGUGAUGUUCGAUCAGAGAAGAAGGCUGAUAAAUAA [Same State FMN B GF 19]”, the “apparent KD of K4 kissing-loop reporter” value in data set [1] (input ligand: FMN 200 uM) was found to be 732 nM; in data set [1] (input ligand: arginine 13.2 mM), 395 nM; in data set [1] (input ligand: none), 917 nM; in data set [1] (setting [2]), 621 nM; in data set [1] (setting [3]) it was 338 nM.

As for “AAAUAAGCUCAUGAUACCAGCCAGUGAUGUUGGUUGGUCCACCGUGUCCGAACAUUAAGCGGCCCUUGGCAGCAUGAUGCGCGUA [Xearxea]”, the “apparent KD of K4 kissing-loop reporter” value in data set [1] (input ligand: FMN 200 uM) was 125 nM; in data set [1] (input ligand: arginine 13.2 mM), 98.5 nM; in data set [1] (input ligand: none), 90.1 nM; in data set [1] (setting [2]), 119 nM; in data set [1] (setting [3]), 118 nM.

In the case of “AAAUAGAUCAGUCAUCCAGUGAUGUUGGAAGGAGCGUGCGAAAGCACAGGUAGGUCGCCAGAAUAAAAGUGGCUGAUCAAAAUAA”, the “apparent KD of K4 kissing-loop reporter” value in data set [1] (input ligand: FMN 200 uM) amounted to 273 nM; in data set [1] (input ligand: arginine 13.2 mM), 318 nM; in data set [1] (input ligand: none) it was 322 nM; in data set [1] (setting [2]), 467 nM; in data set [1] (setting [3]), 178 nM.

For “AAAUAUAGUGAUGUUAUAUAUAUAUGUGAUACCAGAGAAAGAAAACUCCCUUGGCAGCACGAGAGAGAAUUUUUUUUUUAUAUAU [AstrosSSTheA#1]”, the “apparent KD of K4 kissing-loop reporter” value in data set [1] (input ligand: FMN 200 uM) is 362 nM; in data set [1] (input ligand: arginine 13.2 mM) it was 398 nM; in data set [1] (input ligand: none), 552 nM; in data set [1] (setting [2]) it was 414 nM; in data set [1] (setting [3]) it was 245 nM.

As to “AAAUAUUCGAGUGAUGUUCGAUAAAUUUCAGAGGAUAUGCUUAAAAGCAGAAGGCUGUAUUUCUAUUUGUUAUUAAAUUUUAUAA [JR_ExcFMNA_Sub002]”, the “apparent KD of K4 kissing-loop reporter” value in data set [1] (input ligand: FMN 200 uM) worked out at 90.3 nM; in data set [1] (input ligand: arginine 13.2 mM), 107 nM; in data set [1] (input ligand: none), 91.1 nM; in data set [1] (setting [2]), 111 nM; in data set [1] (setting [3]), 76.9 nM.

“AAAUUUAAUAUAUUUAAAUAAAUAUGUGAUACCAGACAUUUAUAAGUCCCUUGGCAGCACAAUGCAGUGAUGUUGCUUAUAAUAA [JR_SSTheophyA_Sub017]”: the “apparent KD of K4 kissing-loop reporter” value in data set [1] (input ligand: FMN 200 uM) came out at 85.6 nM; in data set [1] (input ligand: arginine 13.2 mM) it was 114 nM; in data set [1] (input ligand: none) it was 88.8 nM; in data set [1] (setting [2]), 192 nM; in data set [1] (setting [3]), 73.5 nM.

Regarding “UUUUAACAUGAGGAUCACCCAUGUGAGGAUAUCGAAAUUUAUAUUUAUAUUAAUUAUUCGAGAAGGCACAUUUU [JMF 85] (puzzle: Exclusion 1)”, in the data set with MS2 coat protein (setting [4]), the “apparent KD of MS2 coat protein” value was found to be 131 nM.

Consider “UUUUAACAUGAGGAUCACCCAUGUGAGGAUAUCGUUAUUUUUAUUAAUAUUAAUAAAACGAGAAGGCACAUUUU [JMF 14] (puzzle: Exclusion 1)”, for which, in the data set with MS2 coat protein (setting [4]), the “apparent KD of MS2 coat protein” value came out at 98.3 nM.

Take “UUUUACAAGCUAAGAUCCUACAUGAGGAUCACCCAUGUGGUCCGGUGACGUGAGUCACCGGACUUAGCUCGUCUUGG [salish99_S_TOV1_R5_087] (Eterna round: R97, puzzle: Sensor, turn-off variant 1)”: the “apparent KD of MS2 coat protein” value turned out to be 69.5 nM with MS2 coat protein (input ligand: FMN 200 uM) and 84.7 nM with MS2 coat protein (input ligand: none).

In the case of “UUUUACAUGCUGAGAUCCUACAUGAGGAUCACCCAUGUGGUCCGGUGACUUUUGUCACCGGAUUUUGCUCGUCUUGU [salish99_S_TOV1_R5_101] (Eterna round: R97, puzzle: Sensor, turn-off variant 1)”, the results for the “apparent KD of MS2 coat protein” value in the data set on MS2 coat protein (input ligand: FMN 200 uM) and in the data set with MS2 coat protein (input ligand: none) were 84.8 nM and 108 nM, respectively.

Regarding “UUUUACGCAGGAUAUACAUUUUUUUUAUUAUCCUCAUUAUUACAUGAGGAUCACCCAUGUAGAAGGGCGAUUUU [My Design] (puzzle: Exclusion 2)”, the “apparent KD of MS2 coat protein” value in the data set with MS2 coat protein (setting [4]) was found to be 38.8 nM.

In the case of “UUUUAGAGAGGAUAUAUAUUGUGAAACAUGAGGAUCACCCAUGUAAUAAUAUGGAUGUAAAUAGAAGGCUCAUUUA [JL-ex5-3.03] (puzzle: Exclusion 5)”, the “apparent KD of MS2 coat protein” value came out at 37.5 nM in the data set with MS2 coat protein (setting [5]), 44.6 nM with MS2 coat protein (setting [4]) and 42.7 nM with MS2 coat protein (setting [6]).

Consider “UUUUAGAGAGGAUAUAUUAUGUGAAACAUGAGGAUCACCCAUGUAAUAUAAUGGAUGUAAAUAGAAGGCUCAUUUA [Mat - Exclusion 5 - JL mod - D22] (puzzle: Exclusion 5)”, for which the “apparent KD of MS2 coat protein” value with MS2 coat protein (setting [5]) amounted to 28.4 nM; with MS2 coat protein (setting [4]), 28.4 nM; in the data set with MS2 coat protein (setting [6]) it was 41.1 nM.

For “UUUUAGCAAGCGAGAUCCCACAUGAGGAUCACCCAUGUGCAUCCAGAAUUACUGGGUGCAAAAGCUCGUCUUAUAUA [Winner reversed engineered] (Eterna round: R97, puzzle: Sensor, turn-off variant 1)”, the “apparent KD of MS2 coat protein” value in the data set with MS2 coat protein (input ligand: FMN 200 uM) turned out to be 54.9 nM; in the data set with MS2 coat protein (input ligand: none) it was 50.1 nM.

As to “UUUUAGUCAGGAUAUACAUGAGGAUCACCCAUGUAAAAUUUUAAUUUAAUUUUAAGGUGUAGAAGGGACAACCC [Ex3 #13] (Eterna round: R97, puzzle: Exclusion 3)”, the “apparent KD of MS2 coat protein” value with MS2 coat protein (input ligand: FMN 200 uM) was found to be 26.6 nM; with MS2 coat protein (input ligand: none), 32.6 nM.

“UUUUCUUUUGUGAGGAUAUACUUGUUUUUUUUUUUGUAGAAGGCACAUGAGGAUCACCCAUGUACUCUUUCCUG [JR_BME4_Sub024] (puzzle: Brourd's mod of Exclusion 4)”: in the data set with MS2 coat protein (setting [4]), the “apparent KD of MS2 coat protein” value worked out at 20.1 nM.

For the sequence “UUUUGCACGCUGCGGUCCUACAUGAGGAUCACCCAUGUGGUCUGGUGGCGUGGGUCGCCGGACUUGGCUCGUCUUGG [salish99_S_TOV1_R5_035] (Eterna round: R97, puzzle: Sensor, turn-off variant 1)”, the “apparent KD of MS2 coat protein” value with MS2 coat protein (input ligand: FMN 200 uM) is 15.5 nM; in the data set on MS2 coat protein (input ligand: none), 14.9 nM.

Regarding “UUUUGUUCAGGAUAUGUAGAAUUUAACAUGAGGAUCACCCAUGUAGAUCCUGAAUAAACUACAGAAGGGAACAUUU [Mat - Exclusion 5 - Eli Mod - D15] (Eterna round: R97, puzzle: Exclusion 5)”, the “apparent KD of MS2 coat protein” value worked out at 215 nM with MS2 coat protein (input ligand: FMN 200 uM) and 27.4 nM in the data set with MS2 coat protein (input ligand: none).

Regarding “UUUUUCGUUUAAGCUUCGUACAUGAGGAUCACCCAUGUUUUUAGUUCUGUGUUGGUCAGUAUGGAAGUUCGUCUUAU [JR_SV3TOV1_Sub089] (puzzle: Sensor v3, turn-off variant 1)”, the results for the “apparent KD of MS2 coat protein” value in the data set on MS2 coat protein (setting [5]), in the data set on MS2 coat protein (setting [4]) and with MS2 coat protein (setting [6]) were 325 nM, 166 nM and 371 nM, respectively.

Take “UUUUUCUCAGGAUAUACAUGAGGAUCACCCAUGUAUAUUAAUGAUAAUACAUGGGAAUGUAGAAGGGAGCUCAU [Omei Ex3 Pseudoloop 13] (Eterna round: R97, puzzle: Exclusion 3)”: the “apparent KD of MS2 coat protein” value in the data set with MS2 coat protein (input ligand: FMN 200 uM) was 111 nM; with MS2 coat protein (input ligand: none), 135 nM.

On to “UUUUUGAUAGGAUAUACAUGAGGAUCACCCAUGUGUGACAGGACUGACGCUCUUCAUCGUAGAAGGAUCCGAGC [Eternabot (L1) Solution 97] (Eterna round: R97, puzzle: Exclusion 3)”, for which the “apparent KD of MS2 coat protein” value in the data set on MS2 coat protein (input ligand: FMN 200 uM) came to 27.4 nM; in the data set on MS2 coat protein (input ligand: none), 30.9 nM.

Turning to “UUUUUGUGAGGAUAUCAGUAGUAGAACAAUAGUACUACUACUGAGAAGGCACAUGAGGAUCACCCAUGUUCCUU [Fiskers Ex 4 Super stable 44 mod 12] (puzzle: Exclusion 4)”, the “apparent KD of MS2 coat protein” value in the data set with MS2 coat protein (setting [4]) came to 14.9 nM.

For “UUUUUUGUAGUGAGGAUAUCGUUGUGGAUGUGGAUCGAGAAGGCACAUGAGGAUCACCCAUGUUAGUUGUGGUU [JR_BMOE4_Sub084] (puzzle: Brourd's mod of Exclusion 4)”, the “apparent KD of MS2 coat protein” value in the data set with MS2 coat protein (setting [4]) stood at 188 nM.

Values taken from the supplement of paper PMC9170038.
